Data reported in the supplement of paper PMC10567573.

B1: SOAT1 (parent)
chain: KSAAMLAVFAVSAVVHEYALAVCL
B2: SEC22B (parent)
chain: FPKKLAFAYLEDLHSEFDEQHGKK

Variants of: B1
Assay: protein stability index of a GFP-peptide fusion (GPS, HEK-293T) (PSI 1-6); higher = more stable
Settings: c terminus: a fixed tail appended
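Note: lentivirally expressed fusions sorted by FACS into six bins by GFP to DsRed ratio, PSI derived from sequencing read proportions per bin multiplied by bin number.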

First: KSAVMLAVFAVSAVVHEYALAVCL
Second: KSAAMLAVFAHSAVVHEYALAVCL
The protein stability index of the first is higher: 3.08 for the first, 1.4 for the second.

Compared with QSAAMLAVFAVSAVVHEYALAVCL, KIAAMLAVFAVSAVVHEYALAVCL is lower in protein stability index: 3.7 for the first, 2.12 for the second.

First: KRAAMLAVFAVSAVVHEYALAVCL
Second: KSAAMLAVFAVSAVVHEYALAVSL
The protein stability index of the first is lower: 2.91 for the first, 3.48 for the second.

Going from KSAAMLAVFAVSAVVHEYYLAVCL to KSAAMLAVFAVSWVVHEYALAVCL, the protein stability index rises from 2.56 to 3.01.

Going from KSAAMLAFFAVSAVVHEYALAVCL to KSAAMLMVFAVSAVVHEYALAVCL, the protein stability index falls from 4.29 to 1.54.

Going from KSAAMLAYFAVSAVVHEYALAVCL to KSAANLAVFAVSAVVHEYALAVCL, the protein stability index falls from 3.31 to 2.5.

Going from KSAAMLAVFAVSAVVHEYALAACL to KSAAMLAVFAVSAVVHEYALEVCL, the protein stability index rises from 3.06 to 3.42.

First: KSAAMLAWFAVSAVVHEYALAVCL
Second: KSAAMIAVFAVSAVVHEYALAVCL
The protein stability index of the first is lower: 3.01 for the first, 3.09 for the second.

First: KSNAMLAVFAVSAVVHEYALAVCL
Second: KSAAMLAVFAVAAVVHEYALAVCL
The protein stability index of the first is higher: 2.7 for the first, 1.63 for the second.

Compared with KSAAMLAVFAVSAVVHEYALAICL, KSAAMLAVMAVSAVVHEYALAVCL is lower in protein stability index: 4.34 for the first, 2.35 for the second.

First: KSAKMLAVFAVSAVVHEYALAVCL
Second: KSAAMLAVFAVSAVVHEYAQAVCL
The protein stability index of the first is lower: 2.98 for the first, 4.49 for the second.

Compared with KSAAMLAVFTVSAVVHEYALAVCL, KSAAMGAVFAVSAVVHEYALAVCL is higher in protein stability index: 1.83 for the first, 2.94 for the second.

Compared with KSAAMLAVFAVSAHVHEYALAVCL, KSMAMLAVFAVSAVVHEYALAVCL is higher in protein stability index: 2.91 for the first, 3.72 for the second.

Going from KSAAMLAVPAVSAVVHEYALAVCL to KSAAMLAVFAVSAVVHEYLLAVCL, the protein stability index rises from 1.92 to 3.87.

First: KSAAMLAVFAVSAVVDEYALAVCL
Second: KSADMLAVFAVSAVVHEYALAVCL
The protein stability index of the first is higher: 2.58 for the first, 2.45 for the second.

First: KSAAMLAVFAFSAVVHEYALAVCL
Second: KSAAMLAVFAVSAVVHEYALNVCL
The protein stability index of the first is lower: 2.89 for the first, 3.11 for the second.

First: KSAAMLAVFAVSAVRHEYALAVCL
Second: KSAAMLAVFAVSAVVHEYHLAVCL
The protein stability index of the first is lower: 1.83 for the first, 2.88 for the second.

Compared with GSAAMLAVFAVSAVVHEYALAVCL, KSAAMLAVDAVSAVVHEYALAVCL is higher in protein stability index: 4.12 for the first, 4.42 for the second.

Going from KSAAELAVFAVSAVVHEYALAVCL to KSAAMLAVFAVSAVVHEYALAHCL, the protein stability index falls from 3.88 to 2.82.

KSAAMLAVFAVSAVVHFYALAVCL gave a protein stability index of 2.73.

Variants of: B2
Assay: as above
Settings: c terminus: a fixed tail appended

Compared with FPKKLAFAYLEDLHSYFDEQHGKK, FPKKLAFAYLEDLHSEFDEQLGKK is higher in protein stability index: 1.56 for the first, 2.25 for the second.

First: FPKKRAFAYLEDLHSEFDEQHGKK
Second: FPKKLAFAYLEDLHSEFDEQHGSK
The protein stability index of the first is lower: 2.65 for the first, 2.7 for the second.

First: FPIKLAFAYLEDLHSEFDEQHGKK
Second: FPKKLAFAYLEDLHKEFDEQHGKK
The protein stability index of the first is lower: 2.17 for the first, 2.54 for the second.

Compared with FPKKLAFAYLEDLHSEFDEQHGIK, FPKLLAFAYLEDLHSEFDEQHGKK is lower in protein stability index: 2.66 for the first, 2.18 for the second.

Compared with FPKKLAFAYLEDLHSESDEQHGKK, FPKKLAFAYLEDYHSEFDEQHGKK is lower in protein stability index: 2.64 for the first, 2.47 for the second.

Going from FPKKLAFAYLEDLHTEFDEQHGKK to FPKKLANAYLEDLHSEFDEQHGKK, the protein stability index rises from 2.41 to 3.79.

Going from FPKKLAFAYLEDLHSEFDEQHGKA to FPKKLAFAYLEDFHSEFDEQHGKK, the protein stability index falls from 2.72 to 2.5.

Going from FPKKLDFAYLEDLHSEFDEQHGKK to FPKKLAFAYLEDLHSEFDEMHGKK, the protein stability index falls from 3.13 to 2.03.

Compared with FPKKPAFAYLEDLHSEFDEQHGKK, FPKKLAFAYLEDLHSEFDEQHGNK is higher in protein stability index: 1.77 for the first, 2.66 for the second.

Going from FPKKLAPAYLEDLHSEFDEQHGKK to FPKKLAFAYLYDLHSEFDEQHGKK, the protein stability index falls from 3.39 to 1.98.

Compared with FPKKLAFAYLEDLHWEFDEQHGKK, GPKKLAFAYLEDLHSEFDEQHGKK is higher in protein stability index: 2.27 for the first, 4.02 for the second.

Compared with FPKKLAFAYLEDLASEFDEQHGKK, FPKKLAFAYLEDLHSEFDEQHAKK is higher in protein stability index: 2.47 for the first, 2.54 for the second.

First: FPKKLAFAYLEDLHSEFGEQHGKK
Second: FPKKLAFAYLEDLHSEFDEQHGCK
The protein stability index of the first is higher: 2.38 for the first, 2.3 for the second.

Compared with FPKKLAFAYLEDLCSEFDEQHGKK, VPKKLAFAYLEDLHSEFDEQHGKK is higher in protein stability index: 2.07 for the first, 4.13 for the second.

First: FPKKLATAYLEDLHSEFDEQHGKK
Second: FPKKLAFAYDEDLHSEFDEQHGKK
The protein stability index of the first is lower: 3.33 for the first, 3.56 for the second.

Going from FPKKLAFAYLEDLHSEQDEQHGKK to FPKKLAFAYLEDLHSEFDEQHGKI, the protein stability index falls from 3.28 to 1.89.

First: FPKKLAFAYLEDLNSEFDEQHGKK
Second: FPKKLAFAYLEDLHSEFDEQSGKK
The protein stability index of the first is lower: 2.46 for the first, 2.6 for the second.

Going from FPKKLAFAQLEDLHSEFDEQHGKK to FPKKLAFAYLEDLHSEFDEQCGKK, the protein stability index falls from 2.91 to 2.28.

First: FPKKLAFAYLEDLHEEFDEQHGKK
Second: FYKKLAFAYLEDLHSEFDEQHGKK
The protein stability index of the first is higher: 2.9 for the first, 2.16 for the second.

First: FPKKLAFAYLEDLISEFDEQHGKK
Second: FPKKLAFAYLEDTHSEFDEQHGKK
The protein stability index of the first is lower: 1.68 for the first, 2.79 for the second.

Compared with FPKKLAFAYLEDLHSEFDEQYGKK, FPKKLAFAYLEDLHSEFDTQHGKK is higher in protein stability index: 2.37 for the first, 2.42 for the second.

First: FPKKLAFAYLEDLHVEFDEQHGKK
Second: FPKKAAFAYLEDLHSEFDEQHGKK
The protein stability index of the first is higher: 2.88 for the first, 2.15 for the second.

Compared with FPKKLAFAMLEDLHSEFDEQHGKK, FPKKLAFAYLEDLHSEFDEQHGHK is higher in protein stability index: 2.48 for the first, 2.63 for the second.

Compared with FPKKLAFAYFEDLHSEFDEQHGKK, FPKKLAFAYLEDLHSEFDEQGGKK is higher in protein stability index: 2.31 for the first, 2.5 for the second.

First: FPKKLAFAYLEDLHSEFDEQQGKK
Second: FMKKLAFAYLEDLHSEFDEQHGKK
The protein stability index of the first is lower: 2.66 for the first, 3.04 for the second.

Going from FPKKDAFAYLEDLHSEFDEQHGKK to PPKKLAFAYLEDLHSEFDEQHGKK, the protein stability index rises from 3.26 to 4.6.

Compared with FPKKQAFAYLEDLHSEFDEQHGKK, FPKELAFAYLEDLHSEFDEQHGKK is higher in protein stability index: 3.18 for the first, 4.95 for the second.

For FPKKLYFAYLEDLHSEFDEQHGKK, the protein stability index was 1.66.
